Reference: the Human Domainome abundance scans (Beltran et al. 2025)
± gives the uncertainty stated by the source.

B1: FERM and PDZ domain-containing protein 4, residues 75 to 154; numbered along this chain, Q14CM0 (parent)
chain: APRKVEMRRDPVLGFGFVAGSEKPVVVRSVTPGGPSEGKLIPGDQIVMINDEPVSAAPRERVIDLVRSCKESILLTVIQP

Variants of: B1
Assay: abundance fitness (aPCA) (normalised: wild type 0, dead -1); higher = more abundant; growth selection in yeast, the domain comes from the species named
Conditions: Homo sapiens

Variant	abundance fitness
V12G	-0.048 ± 0.025
V12T	0.049 ± 0.039
V62R	-0.917 ± 0.037
V62Q	-0.745 ± 0.042
V62H	-0.711 ± 0.039
V62M	-0.383 ± 0.031
V26W	-0.379 ± 0.029
V26H	-0.159 ± 0.044
V26I	-0.025 ± 0.043
V26A	-0.113 ± 0.025
E60T	-0.03 ± 0.026
E60R	-0.041 ± 0.02
E60C	-0.059 ± 0.028
G14H	-0.303 ± 0.043
G14C	-0.502 ± 0.042
G14M	-0.404 ± 0.04
G14L	-0.677 ± 0.035
G14S	-0.273 ± 0.028
G14F	-0.822 ± 0.077
I49N	-0.847 ± 0.083
I49T	-0.708 ± 0.042
I49P	-0.928 ± 0.056
I49G	-0.887 ± 0.034
I49Q	-0.941 ± 0.059

Variant	abundance fitness
S36T	-0.477 ± 0.031
S36H	-0.741 ± 0.074
E71I	-0.261 ± 0.037
E71Q	-0.038 ± 0.031
E71R	-0.059 ± 0.025
E71L	-0.232 ± 0.026
E71G	-0.041 ± 0.03
K4S	-0.084 ± 0.29
D44S	-0.264 ± 0.024
D44E	-0.173 ± 0.025
D44H	-0.306 ± 0.079
D44C	-0.289 ± 0.033
G20S	-0.002 ± 0.025
G20N	-0.089 ± 0.047
G20D	0.017 ± 0.032
G20L	-0.116 ± 0.025
G20F	-0.155 ± 0.045
S72H	-0.015 ± 0.029
S72D	-0.014 ± 0.029
F15L	-0.26 ± 0.025
F15P	-0.857 ± 0.047
F15C	-0.758 ± 0.061
F15W	-0.057 ± 0.029
P53C	-0.029 ± 0.031

Variant	abundance fitness
P53R	-0.038 ± 0.025
P53S	-0.002 ± 0.024
P53V	-0.012 ± 0.028
P2L	-0.015 ± 0.026
P2W	-0.119 ± 0.033
P2E	0.044 ± 0.032
P2F	-0.012 ± 0.052
P2I	0.019 ± 0.048
P2A	-0.074 ± 0.026
P2R	-0.01 ± 0.023
P2M	0.023 ± 0.041
P2D	-0.083 ± 0.042
Q45V	-0.123 ± 0.024
Q45H	-0.009 ± 0.029
Q45K	-0.057 ± 0.028
Q45P	-0.938 ± 0.051
Q45D	-0.589 ± 0.041
P42R	-0.124 ± 0.021
P42S	-0.093 ± 0.026
P42D	-0.064 ± 0.035
P42L	-0.104 ± 0.024
P42G	-0.237 ± 0.022
R67A	-0.01 ± 0.022
R67E	0.005 ± 0.024

Variant	abundance fitness
A57P	-0.816 ± 0.045
A57L	0.032 ± 0.023
I46T	-0.113 ± 0.17
I46L	-0.051 ± 0.2
I46S	0.073 ± 0.36
I46P	-0.611 ± 0.37
V77L	-0.105 ± 0.021
V77C	-0.07 ± 0.029
G38Q	-0.099 ± 0.032
G38P	-0.54 ± 0.037
G38D	-0.061 ± 0.031
R61Q	-0.005 ± 0.032
R61S	-0.029 ± 0.024
R61H	-0.012 ± 0.031
G16F	-1.03 ± 0.13
G16V	-1.08 ± 0.049
G16D	-0.783 ± 0.057
G16T	-0.946 ± 0.061
G16A	-0.499 ± 0.027
F17A	-0.857 ± 0.041
F17Y	-0.395 ± 0.052
F17I	-0.322 ± 0.043
F17D	-0.921 ± 0.077
P24E	-0.51 ± 0.036

Variant	abundance fitness
P24Q	-0.472 ± 0.041
P24L	-0.77 ± 0.037
P24S	-0.48 ± 0.031
P24I	-0.777 ± 0.08
P24Y	-0.691 ± 0.081
P24T	-0.471 ± 0.037
R9F	-0.031 ± 0.037
R9Y	-0.089 ± 0.064
R9T	-0.277 ± 0.03
R9H	-0.227 ± 0.06
A19E	-0.075 ± 0.028
A19K	-0.594 ± 0.045
A19L	0.045 ± 0.024
A19C	-0.001 ± 0.037
A19W	-0.045 ± 0.03
T31W	-0.196 ± 0.032
T31L	-0.168 ± 0.023
T31R	-0.034 ± 0.023
T31F	-0.149 ± 0.033
T31E	-0.013 ± 0.032
L74D	0.012 ± 0.05
L74K	0.026 ± 0.049
L74A	-0.006 ± 0.032
L74P	-0.366 ± 0.068

Variant	abundance fitness
L74Q	0.03 ± 0.045
L74H	0.005 ± 0.13
P32Q	-0.018 ± 0.03
P32W	-0.247 ± 0.037
P32Y	-0.136 ± 0.031
P32L	-0.083 ± 0.023
V5A	-0.219 ± 0.026
V5Q	-0.522 ± 0.034
V5M	-0.192 ± 0.031
V5C	-0.556 ± 0.038
V5R	-0.679 ± 0.026
D10Q	-0.32 ± 0.046
D10N	-0.071 ± 0.044
V25L	0.006 ± 0.024
V25R	-0.326 ± 0.023
V25G	-0.467 ± 0.025
A1G	-0.157 ± 0.024
A1E	-0.329 ± 0.037
A1M	-0.227 ± 0.084
A1V	-0.207 ± 0.028
K23H	-0.026 ± 0.043
K23N	0.015 ± 0.041
K23Q	-0.039 ± 0.034
K23A	-0.097 ± 0.026

Variant	abundance fitness
K23C	-0.035 ± 0.035
K23L	-0.066 ± 0.025
C69T	-0.044 ± 0.023
C69G	-0.209 ± 0.025
C69R	-0.119 ± 0.022
C69F	-0.159 ± 0.029
D64I	-0.788 ± 0.051
D64L	-0.466 ± 0.025
D64A	-0.081 ± 0.025
D64K	-0.06 ± 0.029
T76W	-0.18 ± 0.033
T76Y	-0.005 ± 0.059
T76A	-0.132 ± 0.033
T76S	-0.047 ± 0.032
T76I	-0.156 ± 0.052
T76E	-0.025 ± 0.04
E52L	-0.026 ± 0.022
E52Q	-0.012 ± 0.028
E52D	-0.071 ± 0.032
E52S	-0.102 ± 0.024
R28G	-0.014 ± 0.02
R28D	-0.038 ± 0.034
S29F	-0.197 ± 0.039
